The test system of this data set is cell proliferation. Nature of the data set: Recombinant human EGF biological activity assay (cell proliferation method/MTT colorimetric method), Chinese Pharmacopoeia 2015 General Rule 3528. Type of data set: cell-based. The method, then: According to the Pharmacopoeia method, the biological activity of the rHSA/CBD-EGF complex was measured at the cellular level [2015 edition of the Chinese Pharmacopoeia Three General Rules 3528: Recombinant human epidermal growth factor biological activity assay (cell proliferation method/MTT colorimetric method)].

Consider “rHSA/CBD: human CBD (vWF A3 domain) ligated to C-terminal of HSA through connecting peptide (GGGS)2; SEQ ID NO. 3”, for which the Biological specific activity result is “None”.

The record behind these values is patent US20250186598A1, “RECOMBINANT HUMAN SERUM ALBUMIN-COLLAGEN BINDING DOMAIN FUSION PROTEIN FOR TUMOR-SPECIFIC TARGETING MATRIX, AND USE THEREOF” (Huatong Forturn (China) Co., Ltd., priority 2020, published 2025).
